# Where no end group is shown, it is not given here.
# T1: GST-HDMX (human (HDMX), UniProt O15151 1-134)
# T1 chain: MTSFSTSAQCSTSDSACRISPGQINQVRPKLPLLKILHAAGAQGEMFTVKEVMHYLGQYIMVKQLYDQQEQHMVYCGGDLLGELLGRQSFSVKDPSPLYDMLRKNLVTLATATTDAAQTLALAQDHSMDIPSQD
# How the values were obtained:
# [1] = molecular target: SP-5; experiment: Affinity selection MS
# [2] = molecular target: SP-44; experiment: Affinity selection MS
# [3] = molecular target: T1, GST-HDMX; experiment: Competition ELISA
Binder,Kd [1] [nM],Kd [2] [nM],IC50 [3] [nM]
GST-hDM2 (other) MCNTNMSVPTDGAVTTSQIPASEQETLVRPKPLLLKLLKSVGAQKDTYTMKEVLFYLGQYIMTKRLYDEKQQHIVYCSNDLLGDLFGVPSFSVKEHRKIYTMIYRNLVVVNQQESSDSGTSVSENRCHLEGGSDQKDL,25,25,–
"QSQQTFANLWRLLAQN (not fully specified (residues 7, 14, N-terminus, C-terminus, bridges)) [peptide 46 (Table 9), Ac-QSQQTF%r8NLWRLL%QN-NH2]",–,–,175
GST-hDMX (other) MTSFSTSAQCSTSDSACRISPGQINQVRPKLPLLKILHAAGAQGEMFTVKEVMHYLGQYIMVKQLYDQQEQHMVYCGGDLLGELLGRQSFSVKDPSPLYDMLRKNLVTLATATTDAAQTLALAQDHSMDIPSQD,90,180,–

# Source: patent US20170349638A1 (published 2017)
